This is an account of results in doi:10.1101/2020.04.15.043356 (bioRxiv, 2020).

To fix the notation:
B1: GST-Sec23 (natural protein, S. cerevisiae)
chain: MDFETNEDINGVRFTWNVFPSTRSDANSNVVPVGCLYTPLKEYDELNVAPYNPVVCSGPHCKSILNPYCVIDPRNSSWSCPICNSRNHLPPQYTNLSQENMPLELQSTTIEYITNKPVTVPPIFFFVVDLTSETENLDSLKESIITSLSLLPPNALIGLITYGNVVQLHDLSSETIDRCNVFRGDREYQLEALTEMLTGQKPTGPGGAASHLPNAMNKVTPFSLNRFFLPLEQVEFKLNQLLENLSPDQWSVPAGHRPLRATGSALNIASLLLQGCYKNIPARIILFASGPGTVAPGLIVNSELKDPLRSHHDIDSDHAQHYKKACKFYNQIAQRVAANGHTVDIFAGCYDQIGMSEMKQLTDSTGGVLLLTDAFSTAIFKQSYLRLFAKDEEGYLKMAFNGNMAVKTSKDLKVQGLIGHASAVKKTDANNISESEIGIGATSTWKMASLSPYHSYAIFFEIANTAANSNPMMSAPGSADRPHLAYTQFITTYQHSSGTNRIRVTTVANQLLPFGTPAIAASFDQEAAAVLMARIAVHKAETDDGADVIRWLDRTLIKLCQKYADYNKDDPQSFRLAPNFSLYPQFTYYLRRSQFLSVFNNSPDETAFYRHIFTREDTTNSLIMIQPTLTSFSMEDDPQPVLLDSISVKPNTILLLDTFFFILIYHGEQIAQWRKAGYQDDPQYADFKALLEEPKLEAAELLVDRFPLPRFIDTEAGGSQARFLLSKLNPSDNYQDMARGGSTIVLTDDVSLQNFMTHLQQVAVSGQA
B2: 6xHis-Grh1 (natural protein, S. cerevisiae, UniProt Q04410 1-372, looked up)
chain: MFRIAKNLVRTFEQSVQDTLALSQDSSNLDAFFQSIPPNLLSAQLESPVDAVSEGVKHTNVNETLSGLRIVWVDEMQFQLQSFFDYIVGFNDDPVPVVSNQHGFSYPDYRRITSIFNEHCGRTLKVNIWSAKGGTFRDEYISIISKESDDLDDVSLNHDERRPSSGEAHQFQALGFKVQWTPLIASTFTYHILNVNIPDGPAQSAGLIPDEDYIIGCQDGLLATGGETLLQDIVRSRANYDLVLYVYNKVSDCVRPITVHIGPDGRLGCNVGYGFLHRIPTVKHCPQQAQQQGQDDNPVPVPVPVESETAFVPSAFTAPPVPTKKKSKNKKGTQPLAMDDYFNEGRDKSSTAAKSAESDILAPPPQKQSSSD

Experiment [1] addresses Sec13/Sec31 outer coat complex (wild type, His tag removed) (S. cerevisiae, UniProt Q04491 1-297; P38968 1-1273). Description: pull-down.
Experiment [2] addresses B1. Description: pull-down.

Chain of Sec13/Sec31 outer coat complex (wild type, His tag removed) (Q04491 whole entry, chain 1 of 2): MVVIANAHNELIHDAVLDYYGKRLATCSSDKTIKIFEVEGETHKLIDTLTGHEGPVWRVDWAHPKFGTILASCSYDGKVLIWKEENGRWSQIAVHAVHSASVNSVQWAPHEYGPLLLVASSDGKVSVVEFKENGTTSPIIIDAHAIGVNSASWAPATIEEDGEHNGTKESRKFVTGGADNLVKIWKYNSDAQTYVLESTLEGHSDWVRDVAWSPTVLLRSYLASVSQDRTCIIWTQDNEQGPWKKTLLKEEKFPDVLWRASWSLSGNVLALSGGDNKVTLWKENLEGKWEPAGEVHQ
Chain of Sec13/Sec31 outer coat complex (wild type, His tag removed) (P38968 whole entry, chain 2 of 2): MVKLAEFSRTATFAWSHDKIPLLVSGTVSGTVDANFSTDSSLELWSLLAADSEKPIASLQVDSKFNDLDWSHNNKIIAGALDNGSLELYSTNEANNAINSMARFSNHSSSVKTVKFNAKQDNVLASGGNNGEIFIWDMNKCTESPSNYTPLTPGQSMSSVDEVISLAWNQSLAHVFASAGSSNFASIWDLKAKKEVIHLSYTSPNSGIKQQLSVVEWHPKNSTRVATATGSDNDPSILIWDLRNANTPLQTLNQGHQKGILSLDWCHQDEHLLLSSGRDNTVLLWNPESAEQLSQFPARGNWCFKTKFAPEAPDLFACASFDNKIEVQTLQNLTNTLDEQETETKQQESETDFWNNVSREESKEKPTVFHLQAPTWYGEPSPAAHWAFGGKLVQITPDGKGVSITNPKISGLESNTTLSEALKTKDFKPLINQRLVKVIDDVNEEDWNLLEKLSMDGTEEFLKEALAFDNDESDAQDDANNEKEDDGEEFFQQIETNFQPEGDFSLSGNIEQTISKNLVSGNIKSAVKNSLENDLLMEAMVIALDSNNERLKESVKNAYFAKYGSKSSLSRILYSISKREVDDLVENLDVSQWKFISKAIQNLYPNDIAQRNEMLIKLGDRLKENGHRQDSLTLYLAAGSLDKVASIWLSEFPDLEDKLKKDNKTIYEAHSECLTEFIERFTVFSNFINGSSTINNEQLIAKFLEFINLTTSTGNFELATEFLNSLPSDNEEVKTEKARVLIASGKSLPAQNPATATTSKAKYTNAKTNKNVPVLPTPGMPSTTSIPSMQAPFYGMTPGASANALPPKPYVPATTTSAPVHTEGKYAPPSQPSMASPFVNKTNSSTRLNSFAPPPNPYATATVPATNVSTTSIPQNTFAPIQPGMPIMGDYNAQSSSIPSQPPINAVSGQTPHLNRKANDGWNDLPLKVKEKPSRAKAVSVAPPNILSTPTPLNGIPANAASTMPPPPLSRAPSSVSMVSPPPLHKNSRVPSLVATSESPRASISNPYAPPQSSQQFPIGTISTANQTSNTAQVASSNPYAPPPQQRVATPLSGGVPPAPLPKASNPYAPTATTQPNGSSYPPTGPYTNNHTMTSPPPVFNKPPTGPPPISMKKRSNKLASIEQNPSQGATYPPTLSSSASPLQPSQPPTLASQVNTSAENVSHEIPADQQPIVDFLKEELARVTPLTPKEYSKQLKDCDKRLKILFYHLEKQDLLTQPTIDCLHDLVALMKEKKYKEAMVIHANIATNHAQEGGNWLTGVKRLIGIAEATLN

With B1, the binding result in experiment [1] is on record as “binds”.
In the case of B2, the binding result in experiment [2] is recorded as “binds”.
